Biological target: SARS-CoV-2 receptor binding domain (SARS-CoV-2, UniProt P0DTC2)
Experiment: cell-based or functional assay

B1: S2K146 human monoclonal antibody (antibody, V domains shown)
VH: QVQLVESGGVVVQPGGSLRLSCAASGFTFHDHTMHWVRQAPGKGLEWVSLITWNGGTIHYSDSVKGRFTISRDNSKNSLYLQMNSLRTEDTALYYCAKDLGRGGWYLPSDAWGQGTLVTVSS
VL: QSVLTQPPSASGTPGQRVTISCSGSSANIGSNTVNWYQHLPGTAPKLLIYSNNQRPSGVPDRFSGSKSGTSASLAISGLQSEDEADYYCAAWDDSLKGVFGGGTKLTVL
- IC50 of neutralisation of authentic SARS-CoV-2 (isolate USA-WA1/2020, lineage A): 10 ng/mL

Source: paper PMC9400459 (Science (New York, N.y.), 2022)
